From patent publication US20260027208A1 (published 2026) come the findings set out here.

The experiment concerns the target T1, KRAS G12D peptide on HLA-A*11:01 (human).
T1 peptide: VVVGADGVGK
Nature of the experiment: killing. As for the experimental part:
Red fluorescent Hpaf-II cells, a KRAS-G12D expressing tumor cell line transduced to express HLA-A11, were cocultured at 3:1 effector:target cell ratio with TCR32-transduced CD8⁺ T cells having wild type TRAC and TRBC loci or TCR32-transduced TRAC/TRBC double knockout (dKO) CD8⁺ T cells. Total red object integrated intensity (a measure of tumor cell volume) was evaluated over time. Red fluorescence was measured by live cell imaging using a life cell analysis system, the IncuCyte S3 microscope and software package. CD8⁺ T cell cytotoxicity is indicated by a decrease in the total red target cell area per well as compared to no treatment wells. Additional tumor cells were added at 72 and 140 hours to assess TCR-mediated tumor cell lysis by transduced T cells in the presence of persistent antigen. Reductions in tumor cells were observed when co-cultured with TCR-transduced cells (FIG. 2).

B1: TCR32 (TCR, V domains shown)
Valpha: AQTVTQSQPEMSVQEAETVTLSCTYDTSENNYYLFWYKQPPSRQMILVIRQEAYKQQNATENRFSVNFQKAAKSFSLKISDSQLGDTAMYFCAFMTPITQGGSEKLVFGKGTKLTVNP
Vbeta: ETGVTQSPTHLIKTRGQQVTLRCSSQSGHNTVSWYQQALGQGPQFIFQYYREEENGRGNFPPRFSGLQFPNYSSELNVNALELDDSALYLCASSDRGWNEQFFGPGTRLTVL
For B1, the binding result is “recognises”.
